From publication PMC11128199 (2024) come the findings set out here.

In the experiment the target is S protein of WT SARS-CoV-2 (SARS-CoV-2, UniProt P0DTC2). The experiment can be described thus: ELISA. On the technique in general: ELISA stands for enzyme-linked immunosorbent assay.

B1: 55A8 neutralizing antibody (IgG) (antibody, V domains shown)
VH: QVQLVQSGAEVKKPGSSVKVSCKASGGTFSSYSFIWVRQAPGQGLEWMGRIIPILGIANYAQKFQGRVTITADKSTTTAYMELSSLRSEDTAVYYCARGTEYGDYDVSHDWGQGTLVTVSS
VL: not shown
Usually EC50 stands for the concentration needed to bring the measured effect to its halfway point. Read a high EC50 as lower potency in that assay. In the case of B1, a half-maximal response (EC50) required 0.0439 µg/mL.
